According to paper PMC7165476 (Proceedings of the National Academy of Sciences of the …, 2020):
Like-named read-outs stand apart in the source and are kept apart here.

T1: CIRBP RGG (CIRBPRGG) (Homo sapiens, UniProt Q14011 68-137)
T1 sequence: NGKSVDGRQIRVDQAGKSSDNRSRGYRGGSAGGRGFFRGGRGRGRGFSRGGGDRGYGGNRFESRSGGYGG

T2: Transportin-3 (TNPO3), recombinant full length (human, UniProt Q9Y5L0 1-923)
T2 sequence (looked up): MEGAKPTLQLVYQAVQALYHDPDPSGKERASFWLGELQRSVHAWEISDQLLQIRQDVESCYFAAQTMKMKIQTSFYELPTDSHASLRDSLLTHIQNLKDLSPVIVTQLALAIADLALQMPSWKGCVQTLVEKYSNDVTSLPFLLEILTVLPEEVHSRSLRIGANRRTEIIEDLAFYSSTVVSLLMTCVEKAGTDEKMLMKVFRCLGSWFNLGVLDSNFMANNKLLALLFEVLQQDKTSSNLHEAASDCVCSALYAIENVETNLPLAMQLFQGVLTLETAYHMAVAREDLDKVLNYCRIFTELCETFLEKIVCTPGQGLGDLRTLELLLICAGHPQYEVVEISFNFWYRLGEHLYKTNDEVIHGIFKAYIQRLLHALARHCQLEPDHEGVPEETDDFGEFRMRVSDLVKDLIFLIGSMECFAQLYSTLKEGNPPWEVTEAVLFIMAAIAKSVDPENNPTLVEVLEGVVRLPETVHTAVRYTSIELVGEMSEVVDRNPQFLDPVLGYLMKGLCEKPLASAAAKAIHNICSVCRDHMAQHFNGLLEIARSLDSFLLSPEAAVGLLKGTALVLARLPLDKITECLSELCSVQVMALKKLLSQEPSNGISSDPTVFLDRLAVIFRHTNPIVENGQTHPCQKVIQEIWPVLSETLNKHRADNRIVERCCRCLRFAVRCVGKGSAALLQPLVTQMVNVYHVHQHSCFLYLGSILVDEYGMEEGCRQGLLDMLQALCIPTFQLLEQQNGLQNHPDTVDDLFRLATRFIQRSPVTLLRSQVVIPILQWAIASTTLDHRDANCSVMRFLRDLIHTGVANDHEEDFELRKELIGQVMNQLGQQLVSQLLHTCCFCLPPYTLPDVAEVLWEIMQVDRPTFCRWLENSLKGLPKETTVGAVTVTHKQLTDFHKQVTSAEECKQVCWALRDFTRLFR


Tests used:
[1] = molecular target: Transportin-1 (TNPO1), recombinant full length (human) (UniProt Q92973); assay: ITC
Chain of Transportin-1 (TNPO1), recombinant full length (human) (Q92973 whole entry): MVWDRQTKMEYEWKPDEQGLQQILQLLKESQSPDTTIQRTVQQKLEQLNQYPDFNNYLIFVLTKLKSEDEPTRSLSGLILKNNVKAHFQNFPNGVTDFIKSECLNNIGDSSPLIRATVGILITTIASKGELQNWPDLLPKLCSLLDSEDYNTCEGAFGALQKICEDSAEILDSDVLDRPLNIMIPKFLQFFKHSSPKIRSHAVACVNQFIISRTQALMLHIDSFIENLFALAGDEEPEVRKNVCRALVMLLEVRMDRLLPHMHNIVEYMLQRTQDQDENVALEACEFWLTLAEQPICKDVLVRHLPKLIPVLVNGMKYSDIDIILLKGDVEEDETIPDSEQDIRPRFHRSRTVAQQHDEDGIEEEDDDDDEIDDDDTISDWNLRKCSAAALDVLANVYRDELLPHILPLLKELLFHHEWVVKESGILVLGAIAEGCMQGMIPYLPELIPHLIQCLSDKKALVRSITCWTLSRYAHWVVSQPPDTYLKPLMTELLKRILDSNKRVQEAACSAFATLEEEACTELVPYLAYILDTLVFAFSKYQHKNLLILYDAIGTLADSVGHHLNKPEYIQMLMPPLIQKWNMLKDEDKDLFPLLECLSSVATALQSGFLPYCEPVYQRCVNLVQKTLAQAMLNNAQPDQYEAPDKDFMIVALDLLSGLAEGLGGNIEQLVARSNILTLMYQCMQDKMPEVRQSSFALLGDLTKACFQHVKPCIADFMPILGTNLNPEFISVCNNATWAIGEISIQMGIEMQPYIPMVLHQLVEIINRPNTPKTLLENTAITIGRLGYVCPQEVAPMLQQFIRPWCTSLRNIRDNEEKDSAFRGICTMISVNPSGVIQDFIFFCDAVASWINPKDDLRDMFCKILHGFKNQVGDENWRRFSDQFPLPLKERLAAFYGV

[2] = molecular target: TNPO1 lacking the disordered acidic loop (TNPO1^Δloop) (human) (UniProt Q92973); assay: ITC
Chain of TNPO1 lacking the disordered acidic loop (TNPO1^Δloop) (human) (Q92973 whole entry, stated change not applied): as the sequence (Q92973 whole entry) above

[3] = molecular target: Transportin-3 (TNPO3), recombinant full length (human) (UniProt Q9Y5L0); assay: ITC
[4] = molecular target: Transportin-3 (TNPO3), recombinant full length (human) (UniProt Q9Y5L0); assay: ITC; remark: listed apart in the source
[5] = molecular target: TNPO1 acidic loop (TNPO1^loop) (human); assay: NMR titration
Chain of TNPO1 acidic loop (TNPO1^loop) (human) (Q92973 whole entry): as above

CIRBP RGG (CIRBPRGG) = molecular target: T1, CIRBP RGG (CIRBPRGG); assay: NMR
[6] = molecular target: T2, Transportin-3 (TNPO3), recombinant full …; assay: ITC

Chain of PY-NLS of FUS (FUS^PY-NLS) (domain or fragment) (P35637 whole entry, the tested form may be a part): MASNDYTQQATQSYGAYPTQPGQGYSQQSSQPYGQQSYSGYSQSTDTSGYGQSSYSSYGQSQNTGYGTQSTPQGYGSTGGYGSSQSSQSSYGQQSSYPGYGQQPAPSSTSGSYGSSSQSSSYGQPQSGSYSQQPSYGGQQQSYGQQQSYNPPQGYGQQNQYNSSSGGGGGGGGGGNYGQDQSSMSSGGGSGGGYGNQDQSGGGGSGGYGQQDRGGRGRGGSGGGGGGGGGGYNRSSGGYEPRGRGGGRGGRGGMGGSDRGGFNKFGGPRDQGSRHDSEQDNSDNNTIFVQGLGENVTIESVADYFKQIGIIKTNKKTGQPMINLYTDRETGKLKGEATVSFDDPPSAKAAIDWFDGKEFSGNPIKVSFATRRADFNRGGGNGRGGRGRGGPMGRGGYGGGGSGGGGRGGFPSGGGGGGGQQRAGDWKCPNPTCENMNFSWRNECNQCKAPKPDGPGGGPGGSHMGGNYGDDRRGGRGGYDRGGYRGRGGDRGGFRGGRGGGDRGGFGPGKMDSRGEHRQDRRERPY

Molecule	Kd [1] [nM]	dH [1] [kcal⋅mol^−1]	Kd [2] [nM]	dH [2] [kcal⋅mol^−1]	Kd [3] [nM]	dH [3] [kcal⋅mol^−1]	also measured
Cold-inducible RNA-binding protein (CIRBP), full length, untagged (from UniProt Q14011 1-172) (natural protein)	741	-21					
CIRBP RG/RGG-rich region (CIRBP^RGG) (domain or fragment)	75	-11.3	364	-22.3	584	-27	Kd [4]: 589 nM; Kd [5]: 57000 nM
PRMT1-methylated CIRBP RG/RGG region (meCIRBP^RGG) (domain or fragment)					3300	-23	
CIRBP C-terminal RSY-rich region (CIRBP^RSY) (domain or fragment)	7800	-10	8080	-19	114	-34.9	
PY-NLS of FUS (FUS^PY-NLS) (domain or fragment)	48	-21.9	62	-20.6			
UGUGUGUGUGUGUGUGUGUGUGUG (ssRNA) [(UG)12 RNA]							binding result (CIRBP RGG (CIRBPRGG)): binds
Cold-inducible RNA-binding protein (CIRBP), full length, untagged (natural protein, human, UniProt Q14011 1-172, looked up) MASDEGKLFVGGLSFDTNEQSLEQVFSKYGQISEVVVVKDRETQRSRGFGFVTFENIDDAKDAMMAMNGKSVDGRQIRVDQAGKSSDNRSRGYRGGSAGGRGFFRGGRGRGRGFSRGGGDRGYGGNRFESRSGGYGGSRDYYSSRSQSGGYSDRSSGGSYRDSYDSYATHNE							Kd [6]: 289 nM; dH [6]: -58.6 kcal⋅mol^−1
